Data reported in patent publication US20260139017A1, “COMPOSITIONS AND METHODS USING REELIN IN ALZHEIMER'S DISEASE” (The General Hospital Corporation, priority 2022, published 2026).
Entries after “also recorded” stand apart in the source; their conditions may differ.

B1: 6xHISCR-50-R5-6-CtermH3447R (protein)
chain: MYRMQLLSCIALSLALVTNSGGHHHHHHGGEQCGAIMHGNAVTFCEPYGPRELITTGLNTTTASVLQFSIGSGSCRFSYSDPSIIVLYAKNNSADWIQLEKIRAPSNVSTIIHILYLPEDAKGENVQFQWKQENLRVGEVYEACWALGSRGGQTNATRFRLWQPYNNGKKEEIWIVDDFIIDGNNVNNPVMLLDTFDFGPREDNWFFYPGGNIGLYCPYSSKGAPEEDSAMVFVSNEVGEHSITTRDLNVNENTIIQFEINVGCSTDSSSADPVRLEFSRDFGATWHLLLPLCYHSSSHVSSLCSTEHHPSSTYYAGTMQGWRREVVHFGKLHLCGSVRFRWYQGFYPAGSQPVTWAIDNVYIGPQCEEMCNGQGSCINGTKCICDPGYSGPTCKISTKNPDFLKDDFEGQLESDRFLLMSGGKPSRKCGILSSGNNLFFNEDGLRMLMTRDLDLSHARFVQFFMRLGCGKGVPDPRSQPVLLQYSLNGGLSWSLLQEFLFSNSSNVGRYIALEIPLKARSGSTRLRWWQPSENGHFYSPWVIDQILIGGNISGNMVLEDDFTTLDSRKWLLHPGGTKMPVCGSTGDALVFIEKASTRYVVSTDVAVNEDSFLQIDFAVSCSVTDSCYAIELEYSVDLGLSWHPLVRDCLPTNVECSRYHLQRILVSDTFNKWTRITLPLPPYTRSQATRFRWHQPAPFDKQQTWAIDNVYIGDGCIDMCSGHGRCIQGNCVCDEQWGGLYCDDPETSLPTQLKDNFNRAPSSQNWLTVNGGKLSTVCGAVASGMALHFSGGCSRLLVTVDLNLTNAEFIQFYFMYGCLITPNNRNQGVLLEYSVNGGITWNLLMEIFYDQYSKPGFVNILLPPDAKEIATRFRWWQPRHDGLDQNDWAIDNVLISGSASTRKQNYMMNFSRQHGLRRFYNRRRRSLRRYP
B2: FcIgG-RAP-CTRH3447R (protein)
chain: MYRMQLLSCIALSLALVTNSAPLERKSSVECPPCPAPPVAGPSVFLFPPKPKDTLMISRTPEVTCVVVDVSHEDPEVQFNWYVDGVEVHNAKTKPREEQFNSTFRVVSVLTVVHQDWLNGKEYKCKVSNKGLPAPIEKTISKTKGQPREPQVYTLPPSREEMTKNQVSLTCLVKGFYPSDIAVEWESNGQPENNYKTTPPMLDSDGSFFLYSKLTVDKSRWQQGNVFSCSVMHEALHNHYTQKSLSLSPGARTGGGGSGGGGSMAPRRVRSFLRGLPALLLLLLFLGPWPAASHGGKYSREKNQPKPSPKRESGEEFRMEKLNQLWEKAQRLHLPPVRLAELHADLKIQERDELAWKKLKLDGLDEDGEKEARLIRNLNVILAKYGLDGKKDARQVTSNSLSGTQEDGLDDPRLEKLWHKAKTSGKFSGEELDKLWREFLHHKEKVHEYNVLLETLSRTEEIHENVISPSDLSDIKGSVLHSRHTELKEKLRSINQGLDRLRRVSHQGYSTEAEFEEPRVIDLWDLAQSANLTDKELEAFREELKHFEAKIEKHNHYQKQLEIAHEKLRHAESVGDGERVSRSREKHALLEGRTKELGYTVKKHLQDLSGRISRARHNELTGGSGGSTRKQNYMMNFSRQHGLRRFYNRRRRSLRRYP

What was measured:
total DAB1 = assay: Overexpression of mini-RELN constructs in HRECs, total DAB1 western blot; format: cell-based, human; conditions: 24 h overexpression in HRECs
Description: For in vitro overexpression, the HRECs were cultured in EBM-2 media enriched with EGM-2 Single Quots (Lonza) at 37° C. and 5% CO2 and experimentally tested at passage 7. 24 h prior experiment, cells were plated on a 6-well plate at 500,000 cells/mL. The cell transfection of plasmids was done with Lipofectamine 2000 (5 μL, Life technologies) according to the manufacturer. In detail, one day prior to transfection, cells were seeded to be 70% confluent at moment of transfection. The day of transfection lipofectamine was diluted and incubated for 10 minutes at room temperature, to allow the formation of the lipophilic complex. Subsequently, each plasmid (1 μg, Invivogen) was added to the lipid complex of Lipofectamine and incubated for 10 minutes. We used OPTIMEM media (Gibco) to block the transfection after 5 hours, to allow cells to recover and facilitate replication. Prior 5 h and 24 h post-transfection, cells were imaged using 10× magnification light microscope (Olympus CKX53).
24 h post-transfection, cells were harvested for western blotting analysis. Total protein levels were quantified via BCA assay. […] We detected β-actin (1:5000, mouse, #66009-1-Ig, Proteintech), and total DAB1(1:100, SC-red tube; sc-271136 Dab1 (G-5), Santa Cruz). […] To quantify the results, each band was quantified using ImageJ and data expressed as DAB1:β-actin ratio normalized to the control. […]

pDAB1 (Tyr232) = assay: HRECs treated 5 minutes with recombinant mini-RELN, pDAB1 western blot; format: cell-based, human; conditions: for pDAB1 levels: 5 minutes, 4 ug/mL recombinant protein
Description: For in vitro screening of constructs using recombinant mini-RELN on HRECs, the cells were cultured in EBM-2 media enriched with EGM-2 Single Quots (Lonza) at 37° C. and 5% CO2 and experimentally tested at passage 7. 24 h prior experiment, cells were plated on a 6-well plate at 500,000 cells/mL. Two hours before the experiment, the cells were washed with PBS to remove residual growth media and then incubated with a starving media including EBM-2, 1% GlutaMax+0.2% Normicin. Treatments was conducted using recombinant mini RELN constructs obtained from Innovagen and Recombinant Mouse Reelin Protein from R&D systems (3820-MR-025/CF). Each treatment was incubated for 5 minutes at 4 ug/mL concentration and cells were subsequently harvested in lysis buffer was applied constituted of RIPA (Cell signaling), proteases inhibitors (cOmplete™, Mini, EDTA-free Protease Inhibitor Cocktail, Roche), phosphatases inhibitors (PhosSTOP, Roche), 1 μL of proteasome inhibitor MG-132 10 mM, 1% Triton X 100. The lysates were scraped and centrifugated at 15000 rpm for 10 minutes at 4° C. Total protein levels were quantified via BCA assay. For Western Blotting, 3.5 ug protein homogenates were prepared under reducing and denaturing conditions using Laemmli buffer enriched with 10 mM DTT and 5 min boiling. Samples were electrophoretically separated in a 4-20% Gel at 90V and protein transferred to a PVDF membrane using iBlot™ 2 Dry Blotting System. The membrane was blocked using Intercept® (TBS) Blocking Buffer for 2 hours. We detected pDAB1 (Tyr232; 1:1000, rabbit, #3325 Cell signaling), and total protein staining (Licor). Antibodies were diluted using Intercept® (TBS) Blocking Buffer and incubated overnight at 4C under gentle shaking. Prior secondary antibody incubation, membranes were washed 2 times using TBS-T for 10 minutes. As secondary antibodies we used IR Dye 800n CW Goat-anti-Rabbit (925-32211, Licor) diluted 1:10000 in blocking buffer for 1 h at room temperature under gentle shaking. Membranes were washed three times with TBST-T prior IR detection using Odyssey imager. To quantify the results, each band was quantified using ImageJ and data expressed as pDABL:total protein ratio normalized to the control.

pDAB1 [1] = assay: Trans-nasal (MIND) delivery of mini-RELN in mice, brain pDAB1 western blot; format: in vivo
Excerpt: (§1) We used a MIND procure (trans nasal delivery using Minimally Invasive Nasal Depot (MIND), Padmakumar et al., J Control Release. 2021 Mar. 10; 331: 176-186) or intraperitoneal injection to administer miniRELN constructs into mice. MIND leverages the olfactory nerve to bypass the blood brain barrier. […] Using the MIND methodology provides one method of reaching the entorhinal cortex with minimal systemic exposure. […] (Jackson Laboratory) were housed under regular light/night cycle. All procedures were conducted under approved IACUC animal protocols. Prior to incision, the nasal region was shaved and cleaned using betadine and 70% alcohol and mouse subcutaneously injected with buprenorphine HCl and meloxicam (5 mg/kg). The nasal cavity was then opened using a scalped and nasal mucosa exposed using a microdrill. Once the mucosa was exposed, gel dispersion of either PBS or mini-RELN constructs (Innovagen) in 20% Pluronic (Sigma Aldrich) was subcutaneously delivered in the surgically-generated pocket. Mice were injected with meloxicam for 3 days prior euthanasia at day 4 to collect the brain tissue used for post-mortem analysis.
Western blotting was performed as follows. 20 ug protein homogenates were prepared under reducing and denaturing conditions using Laemmli buffer enriched with 10 mM DTT and 5 min boiling. Samples were electrophoretically separated in a 4-20% Gel at 90V and protein transferred to a PVDF membrane using iBlot™ 2 Dry Blotting System. The membrane was blocked using Intercept® (TBS) Blocking Buffer for 2 hours. We detected pDAB1 (Tyr232; 1:1000, rabbit, #3325 Cell signaling), and Beta actin (1:5000, mouse, #66009-1-Ig, Proteintech). Antibodies were diluted using Intercept® (TBS) Blocking Buffer and incubated overnight at 4C under gentle shaking. Prior secondary antibody incubation, membranes were washes 2 times using TBS-T for 10 minutes. As secondary antibodies we used IR Dye 800n CW Goat-anti-Rabbit (925-32211, Licor) and IR Dye 680 CW Goat-anti-Mouse (925-68070, Licor) both diluted 1:10000 in blocking buffer for 1 h at room temperature under gentle shaking. Membranes were washed three times with TBS-T prior IR detection using Odyssey imager. To quantify the results, each band was quantified using ImageJ and data expressed as pDAB1:βActin ratio normalized to the control.

[2] = Anti human IgG-Fc ELISA of hippocampus after trans-nasal mini-RELN; format: in vivo, mice; conditions: 72 h post injection, vs PBS vehicle
Excerpt: as §1

pDAB1 [3] = assay: Immunofluorescence of cleared brain sections (Fc tag, pDAB1) after MIND delivery; format: in vivo, mice
Description: 24 or 72 hours after Mini Reelin (225S) or vehicle administration, mice were intracardially perfused with 4% PFA in PBS and brains were harvested and incubated in 4% PFA at 4° C. for 24 hours. Sagittal sections were obtained at 1 mm thickness using a stainless-steel brain matrix. The entorhinal-hippocampal section of each brain was chosen for Clarity using Binaree® Tissue Clearing™ Kit (HRTC-012) following the kit guidelines. Sections were incubated with IgG-Fc tag and pDAB1 primary antibodies for 72 h followed by secondary antibody: Alexa 488 and Alexa 647, and DAPI for 1 h. Subsequently, sections were imaged using confocal SP8 microscope for quantification. […] This is proof of effective drug delivery, target engagement, and targeted RELN signaling activation, in the hippocampal formation.

[4] = WT male mice, 72 h post-trans-nasal delivery

Molecule	total DAB1 levels normalized to β-actin and lipofectamine control (total DAB1)	efficacy at RELN signaling (pDAB1) relative to comparators (pDAB1 (Tyr232); 5 minutes treatment)	pDAB1 levels (pDAB1 (Tyr232))	pDAB1 levels in the hippocampus (pDAB1 [1]; [4])	pDAB1 levels in the midbrain (pDAB1 [1]; [4])	anti human IgG-Fc ELISA optical density in the hippocampus [2]	pDAB1 levels in the entorhinal cortex (pDAB1 [1]; Tau P301S mice, 72 h post-trans nasal delivery, vs PBS)	presence of peptide in the brain (Fc immunofluorescence) (pDAB1 [3]; entorhinal-hippocampal section, 24 or 72 hours after MIND)	RELN signaling measured via pDab1 (immunofluorescence) (pDAB1 [3]; wildtype animals, trans nasal, 24 hours, vs pluronic vehicle)
B1	the most active	more effective than commercially available positive control; also recorded: more effective at triggering signaling compared to full-length RELN WT and full-length RELN COLBOS	increased pDAB1 levels	increased	increased	–	–	–	–
B2	–	–	increased pDAB1 levels	–	–	trended to be increased	increased	presence of the miniRELN peptide in the brain	increased levels of RELN signaling
